Among the data in patent US20160033523A1 (NOVOZYMES BIOPHARMA DK A S, published 2016) are Kd, koff and kon values, retold here.

As a reminder, the Kd is the free concentration of one partner at which half of the binding sites on the other are occupied at equilibrium, for simple one-to-one binding. The koff is a measure of how fast the partners let go of each other. Broadly, the kon is a measure of how fast the partners come together.

The target of experiment [1] is T1, Soluble rat FcRn, GST-tagged, with human beta2-microglobulin (rat; Schistosoma japonicum; human, UniProt P08515 1-218 = GST).
T1 construct: also called srFcRn
The experiment in a line: SPR, albumin over immobilized GST-FcRn, pH 6.0, 1:1 model. The protocol:
(§1) SPR experiments were carried out using a Biacore 3000 instrument (GE Healthcare). Flow cells of CM5 sensor chips were coupled with soluble FcRn from one of the following species, human (shFcRn), rat (srFcRn), mouse (smFcRn), rhesus monkey (srmFcRn), dog (dFcRn) or pig (pFcRn) (˜900-2500 resonance units (RU)) using GE Healthcare amine coupling chemistry as per the manufacturer's instructions. The coupling was performed by injecting 2 or 10 μg/ml FcRn in 10 mM sodium acetate pH 5.0 (GE healthcare). Phosphate buffer (67 mM phosphate buffer, 0.15 M NaCl, 0.005% Tween 20) at pH 6.0) was used as running buffer and dilution buffer. Regeneration of the surfaces were done using injections of HBS-EP buffer (0.01 M HEPES, 0.15 M NaCl, 3 mM EDTA, 0.005% surfactant P20) at pH 7.4 (GE Healthcare). For determination of binding kinetics, serial dilutions of albumin (10-0.3 μM) were injected over immobilized receptors at a constant flow rate (50 μl/min) at 25° C. In all experiments, data were zero adjusted and the reference cell subtracted.
On the technique in general: SPR reads the build-up and loss of mass on a sensor chip optically.

Experiment [2] concerns the target T2, Soluble mouse FcRn, GST-tagged, with human beta2-microglobulin (mouse; Schistosoma japonicum; human, UniProt P08515 1-218 = GST).
T2 construct: also called smFcRn
Described as above. The procedure: as §1

For experiment [3], the target named is T3, Soluble rhesus monkey FcRn, GST-tagged, with human beta2-microglobulin (rhesus monkey; Schistosoma japonicum; …, UniProt P08515 1-218 = GST).
T3 construct: also called srmFcRn; soluble rhesus macaque FcRn
The experiment is described as above. The protocol:
as §1

In experiment [4] the target is T4, Soluble dog FcRn, GST-tagged, with human beta2-microglobulin (dog; Schistosoma japonicum; human, UniProt P08515 1-218 = GST).
T4 construct: also called dFcRn
The experiment is described as above. The protocol:
as §1

The target in experiment [5] is T5, Soluble pig FcRn, GST-tagged, with human beta2-microglobulin (Example 2) (pig; Schistosoma japonicum; human, UniProt P08515 1-218 = GST).
T5 construct: also called pFcRn; spFcRn
The description is as above. The procedure:
as §1

The target in experiment [6] is T1, Soluble rat FcRn, GST-tagged, with …. The experiment in a line: SPR, albumin over immobilized GST-FcRn, pH 6.0, steady state. The procedure:
as §1

The target of experiment [7] is T2, Soluble mouse FcRn, GST-tagged, with …. Described as above. The protocol: as §1
Experiment [8] has as its target T6, Wild type cynomolgus macaque serum albumin (cynomolgus macaque, UniProt A2V9Z4 24-608).
T6 construct: also called CSA; native cyno albumin
The experiment in a line: SPR, albumin over immobilized His-FcRn, pH 5.5, 1:1 Langmuir. The procedure:
as §1
The SPR assay was conducted with the following variations to the assay described in the Materials and Method section:
The soluble FcRn receptors were synthesized by GeneArt and expressed in HEK cells. The soluble FcRn contained a HIS-tag on the C-terminal of the Beta-chain instead of a GST on the heavy chain and the beta-chain used was the native beta-chain of the animal (see Materials and Method section for the corresponding sequences). The soluble FcRn was purified by a HIS trap column followed by an additional purification using an IgG column. The soluble FcRn receptor was diluted to 20 μg/mL. The phosphate buffer used as running buffer in the SPR assay was at pH 5.5 instead of pH 6.0. […] 1:1 Langmuir or Steady state model was used.

T6 sequence (A2V9Z4 24-608): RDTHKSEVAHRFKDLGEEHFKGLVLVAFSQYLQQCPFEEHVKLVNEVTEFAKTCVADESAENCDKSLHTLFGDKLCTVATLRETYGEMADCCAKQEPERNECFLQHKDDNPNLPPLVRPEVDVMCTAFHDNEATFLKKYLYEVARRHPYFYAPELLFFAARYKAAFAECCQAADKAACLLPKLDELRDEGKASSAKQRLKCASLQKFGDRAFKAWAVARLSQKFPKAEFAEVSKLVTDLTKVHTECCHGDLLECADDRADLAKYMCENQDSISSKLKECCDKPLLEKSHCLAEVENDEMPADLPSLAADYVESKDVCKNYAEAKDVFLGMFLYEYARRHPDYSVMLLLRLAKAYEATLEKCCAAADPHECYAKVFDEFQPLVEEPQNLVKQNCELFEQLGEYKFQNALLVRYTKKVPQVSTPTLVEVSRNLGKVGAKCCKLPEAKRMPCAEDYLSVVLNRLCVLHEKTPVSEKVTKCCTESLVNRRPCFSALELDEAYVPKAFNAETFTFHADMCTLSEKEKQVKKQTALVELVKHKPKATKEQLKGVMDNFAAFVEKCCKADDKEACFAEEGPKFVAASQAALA

B1: Wild type rat serum albumin (ligand)
chain: EAHKSEIAHRFKDLGEQHFKGLVLIAFSQYLQKCPYEEHIKLVQEVTDFAKTCVADENAENCDKSIHTLFGDKLCAIPKLRDNYGELADCCAKQEPERNECFLQHKDDNPNLPPFQRPEAEAMCTSFQENPTSFLGHYLHEVARRHPYFYAPELLYYAEKYNEVLTQCCTESDKAACLTPKLDAVKEKALVAAVRQRMKCSSMQRFGERAFKAWAVARMSQRFPNAEFAEITKLATDVTKINKECCHGDLLECADDRAELAKYMCENQATISSKLQACCDKPVLQKSQCLAEIEHDNIPADLPSIAADFVEDKEVCKNYAEAKDVFLGTFLYEYSRRHPDYSVSLLLRLAKKYEATLEKCCAEGDPPACYGTVLAEFQPLVEEPKNLVKTNCELYEKLGEYGFQNAVLVRYTQKAPQVSTPTLVEAARNLGRVGTKCCTLPEAQRLPCVEDYLSAILNRLCVLHEKTPVSEKVTKCCSGSLVERRPCFSALTVDETYVPKEFKAETFTFHSDICTLPDKEKQIKKQTALAELVKHKPKATEDQLKTVMGDFAQFVDKCCKAADKDNCFATEGPNLVARSKEALA
notes: also called RSA; RSA Wt
Regarding B1, the Kd in experiment [1] came to 3.2 µM; in experiment [2], 2.6 µM; in experiment [3], 2.2 µM; in experiment [4] it was 5.8 µM; in experiment [5], 6.4 µM; in experiment [6] it was 4.1 µM. This molecule displayed a Kd in experiment [7] of 2.6 µM. Also, the dissociation rate constant (koff) is 0.026 s⁻¹ in experiment [1]; 0.0341 s⁻¹ in experiment [2]; 0.0101 s⁻¹ in experiment [3]; 0.048 s⁻¹ in experiment [4]; 0.071 s⁻¹ in experiment [5]. The kon in experiment [1] was found to be 7600 M⁻¹ s⁻¹; in experiment [2], 13000 M⁻¹ s⁻¹; in experiment [3] it was 4500 M⁻¹ s⁻¹; in experiment [4], 8300 M⁻¹ s⁻¹; in experiment [5], 11000 M⁻¹ s⁻¹.

B2: Soluble cynomolgus macaque FcRn with cynomolgus beta2-microglobulin, HIS-tagged (receptor)
chain: AESHLSLLYHLTAVSSPAPGTPAFWVSGWLGPQQYLSYDSLRGQAEPCGAWVWENQVSWYWEKETTDLRIKEKLFLEAFKALGGKGPYTLQGLLGCELSPDNTSVPTAKFALNGEEFMNFDLKQGTWGGDWPEALAISQRWQQQDKAANKELTFLLFSCPHRLREHLERGRGNLEWKEPPSMRLKARPGNPGFSVLTCSAFSFYPPELQLRFLRNGMAAGTGQGDFGPNSDGSFHASSSLTVKSGDEHHYCCIVQHAGLAQPLRVELETPAKSS
b2m: IQRTPKIQVYSRHPPENGKPNFLNCYVSGFHPSDIEVDLLKNGEKMGKVEHSDLSFSKDWSFYLLYYTEFTPNEKDEYACRVNHVTLSGPRTVKWDRDM
notes: Synthesized by GeneArt, expressed in HEK cells; also called CynoFcRn; Cyno FcRn; not shown: HIS-tag on the C-terminal of the beta-chain
With B2, in experiment [8], the Kd was 35 µM.
